The assay has as its target T1, BioEase tag-fused SITH-1 protein (human herpes virus 6 (HHV-6), biotinylated in vivo (E. coli) within the N-terminal BioEase tag; residue not stated).
T1 construct: Fusion of the BioEase biotinylation tag (N-terminal) with HHV-6 SITH-1, expressed in E. coli BL21 (DE3); Used as a crude extract on blots, or captured on a TM2 plate; also called BioEase-SITH-1 fusion protein; biotinylated SITH-1
T1 chain: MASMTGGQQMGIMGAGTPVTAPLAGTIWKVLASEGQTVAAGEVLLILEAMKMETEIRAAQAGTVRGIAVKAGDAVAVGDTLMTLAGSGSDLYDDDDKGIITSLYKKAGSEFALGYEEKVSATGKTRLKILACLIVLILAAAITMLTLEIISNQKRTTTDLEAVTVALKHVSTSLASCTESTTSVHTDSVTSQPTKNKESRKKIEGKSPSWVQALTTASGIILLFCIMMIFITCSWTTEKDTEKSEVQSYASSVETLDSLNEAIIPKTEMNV
The assay can be described thus: capture of crude extract on TM2-coated microplate (binding through biotin).

This note sets out measurements from patent US20120088313A1 (JAPAN TOBACCO, published 2012).

B1: tamavidin 2 (other)
chain: MSDVQSSLTGTWYNELNSKMELTANKDGTLTGKYLSKVGDVYVPYPLSGRYNLQPPAGQGVALGWAVSWENSKIHSATTWSGQFFSESSPVILTQWLLSSSTARGDVWESTLVGNDSFTKTAPTEQQIAHAQLHCRAPRLK
notes: Purified TM2 immobilized on a New ELISA microplate; also called TM2; purified TM2
Regarding B1, the binding result is “binds”.
